Laboratory results reported in patent publication US20180095098A1.

Biological target: Human β2-adrenergic receptor, amino-terminal FLAG epitope tag, truncated after residue 365, biotinylated, bound to the agonist BI-167107 (human) (UniProt P07550)
Test: SPR (Biacore T100, 25 °C), biotinylated BI-167107-bound receptor on SA chip, single-cycle kinetics

fold slowing of dissociation against wild-type Nb80: > 10 fold
Substance: Nb6B9, high affinity variant of Nb80 (VHH)
